Substitutions are numbered along the chain they refer to.
What was measured:
Test in all cases: immunoprecipitation of point-mutated molecules (FIG. 5)
[1] = molecular target: T1, Dsg3-M5 (human, UniProt P32926 50-615, L75I; T77Y)
T1 construct: extracellular domain; also called point-mutated human Dsg3 molecule M5; not shown: His tag of vector pEVmod-His
T1 sequence (looked up): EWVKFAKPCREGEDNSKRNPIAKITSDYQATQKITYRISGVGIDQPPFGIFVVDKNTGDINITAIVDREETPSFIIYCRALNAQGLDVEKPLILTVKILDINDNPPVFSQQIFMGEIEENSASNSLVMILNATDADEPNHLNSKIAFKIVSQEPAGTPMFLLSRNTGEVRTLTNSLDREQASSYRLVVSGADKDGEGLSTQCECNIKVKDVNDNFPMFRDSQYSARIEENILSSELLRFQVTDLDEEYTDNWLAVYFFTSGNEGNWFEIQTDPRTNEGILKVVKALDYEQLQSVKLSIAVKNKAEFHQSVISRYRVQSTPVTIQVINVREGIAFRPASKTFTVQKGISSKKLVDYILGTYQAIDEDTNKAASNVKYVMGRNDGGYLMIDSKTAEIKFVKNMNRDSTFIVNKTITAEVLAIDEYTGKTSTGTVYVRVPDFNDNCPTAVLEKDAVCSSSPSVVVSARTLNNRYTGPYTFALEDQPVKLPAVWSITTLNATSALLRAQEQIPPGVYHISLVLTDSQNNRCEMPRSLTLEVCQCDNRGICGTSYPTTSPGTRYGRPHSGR

[2] = molecular target: T2, Dsg1-M7 (human, UniProt Q02413 50-545, I3V; A7K; A8P)
T2 construct: extracellular domain; also called hDsg1-M7
T2 sequence (looked up): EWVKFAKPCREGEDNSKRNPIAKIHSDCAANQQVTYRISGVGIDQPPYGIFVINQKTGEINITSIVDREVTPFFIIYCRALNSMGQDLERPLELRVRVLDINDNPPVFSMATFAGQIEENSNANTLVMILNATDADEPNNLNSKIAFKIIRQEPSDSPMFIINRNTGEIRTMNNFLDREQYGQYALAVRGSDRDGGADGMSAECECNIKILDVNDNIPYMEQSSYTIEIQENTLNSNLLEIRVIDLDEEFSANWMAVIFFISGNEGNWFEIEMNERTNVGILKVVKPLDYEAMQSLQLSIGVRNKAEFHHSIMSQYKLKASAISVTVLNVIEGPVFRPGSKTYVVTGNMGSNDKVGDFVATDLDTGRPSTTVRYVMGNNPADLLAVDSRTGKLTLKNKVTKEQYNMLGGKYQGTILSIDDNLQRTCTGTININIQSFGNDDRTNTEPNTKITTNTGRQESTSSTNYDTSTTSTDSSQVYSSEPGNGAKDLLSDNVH

[3] = molecular target: T3, Dsg3-M3 (human, UniProt P32926 50-615, V53I; D54N; K55Q; N56K)
T3 construct: extracellular domain; also called point-mutated human Dsg3 molecule M3; not shown: His tag of vector pEVmod-His
T3 sequence (looked up): T1 sequence (looked up) with V53I, D54N, K55Q, N56K, I75L, Y77T

[4] = molecular target: T4, Dsg3-M6 (human, UniProt P32926 50-615, A83S; Q84M)
T4 construct: extracellular domain; also called point-mutated human Dsg3 molecule M6; not shown: His tag of vector pEVmod-His
T4 sequence (looked up): T1 sequence (looked up) with I75L, Y77T, A83S, Q84M

binding result [1]: binds | binding result [2]: no binding | binding result [3]: binds | binding result [4]: binds
B1: anti-Dsg3 monoclonal antibody AK23 (antibody, mouse IgG1, V domains shown)
VH: QVQLQQSGTELVKPGASVKLSCKSSGYTFTSYWINWVKQRPGQGLEWIGNINPSNGGINYNEKFKSKATLTVDKSSSTAYMQLKSLTSEDSAVYYCARGGYDGYPWGQGTTVTVS
VL: DIQMTQSPKFLLVSAGDRVTITCKASQSVSYDVAWYQQKPGQSPKLLISYASNRYTGVPDRFTGSGYGSDFTFTISTVQTEDLAVYFCQQDYSSPWTFGGGTKLELKR
notes: Mouse IgG1 kappa hybridoma antibody
